The record followed here is patent US20150037328A1 (Pfizer, published 2015).

Broadly, the Kd is the equilibrium constant for the complex coming apart. By koff is commonly meant the first-order rate constant of dissociation. The low end stands for slow dissociation, the high end for fast dissociation. As a reminder, the kon is the second-order rate constant of association. A low value points to slower complex formation. What is called t½ is the time needed for the level to fall by half in the phase considered. Read a high t½ as slow loss.

Experiment [1] addresses T1, human CXCR4 (chemokine (C-X-C motif) receptor 4) (human, UniProt P61073 1-352).
T1 construct: Endogenous on human tumour cell lines (Ramos, HPB-ALL, Raji, Jurkat, MM1.S, RPMI-8226, MOLP-8, MOLT-4) or transfected into CHO-K1 cells (DiscoveRx); also called CXCR4 receptor
Nature of the experiment: flow cytometry on HPB-ALL cells, Fab at 2.5 µg/ml. (In flow cytometry, cells or beads pass a laser one at a time.)

For experiment [2], the target named is T1, human CXCR4 (chemokine (C-X-C motif) …). Nature of the experiment: flow cytometry on HPB-ALL cells, Fab at 0.25 µg/ml.
The target in experiment [3] is T2, human CXCR4-enriched lipoparticles (LEV101, Integral Molecular) (human, UniProt P61073 1-352).
T2 construct: Bought reagent; CXCR4 held in lipoparticles captured by biotinylated WGA on an SA chip; also called Lipoparticles containing CXCR4 proteins
Nature of the experiment: biosensor kinetic titration, Fab over captured human CXCR4 lipoparticles. The method, then:
The binding affinity of each Fab was determined using human CXCR4-enriched lipoparticles (LEV101, Integral Molecular, Philadelphia Pa.). Biotinylated WGA (Sigma Aldrich, St. Louis Mo.)) can be coated on the SA chip to facilitate capturing lipoparticles containing CXCR4 proteins. […] J. Mol. Recognit.

Experiment [4] has as its target T1, human CXCR4 (chemokine (C-X-C motif) …). Nature of the experiment: flow cytometry on HPB-ALL cells, Fab at 0.25 µg/mL. As to the method:
Binding of CXCR4 Fabs to CXCR4-expressing cells were measured by flow cytometry on HPB-ALL (Human T cell leukemia) cells. 150,000 HPB-ALL cells were resuspended in 100 uL FACS buffer (1×PBS+0.5% BSA) on 96 well plates. […] After removing the primary antibodies the cells were washed twice with FACS buffer and then resuspended in FACS buffer and 2 uL (3 ug) of 2nd Ab (Alexa Fluor 647-conjugated goat anti-human IgG, F(ab′)2 specific, Jackson ImmunoResearch Laboratories, West Grove Pa.) was then added to each well. The plates were incubated at 4 degree for another 30 min. Fluorescence signals were acquired by cell analyzer LSRII (BD Biosciences, San Jose Calif.).

T1 sequence (P61073 whole entry): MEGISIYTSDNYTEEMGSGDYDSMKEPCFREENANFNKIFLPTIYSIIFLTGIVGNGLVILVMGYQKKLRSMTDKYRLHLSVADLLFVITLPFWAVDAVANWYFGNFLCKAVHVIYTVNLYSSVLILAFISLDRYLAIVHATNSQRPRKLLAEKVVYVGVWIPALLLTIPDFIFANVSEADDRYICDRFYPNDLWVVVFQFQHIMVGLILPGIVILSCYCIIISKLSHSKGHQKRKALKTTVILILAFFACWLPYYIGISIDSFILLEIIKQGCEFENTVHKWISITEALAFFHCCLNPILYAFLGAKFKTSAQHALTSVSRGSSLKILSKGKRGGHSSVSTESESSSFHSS
T2 sequence (P61073 whole entry): as above

B1: h3G10.1.7 VH / h3G10.2.72 VL Fab (Fab, V domains shown)
VH: EVQLVESGGGLVQPGGSLRLSCAASGFTFSDYYMSWVRQAPGKGLEWVGFIRHKANKYTTEYSTSVKGRFTISRDDSKNSLYLQMNSLKTEDTAVYYCARDLPGFAYWGQGTLVTVSS
VL: DIVMTQSPDSLAVSLGERATINCKSSQSLFNSRTRKNYLAWYQQKPGQPPKLLIYWASARESGVPDRFSGSGSGTDFTLTISSLQAEDVAVYYCKQSFRLRTFGGGTKVEIK
notes: Tested as Fab
B1: the MFI in experiment [1] was 4120; in experiment [2] it was 768.

B2: h3G10.1.91 VH / h3G10.A58B VL Fab (Fab, V domains shown)
VH: EVQLVESGGGLVQPGGSLRLSCAASGFTFSDYYMSWVRQAPGKGLEWVGFIRHKANFETTEYSTSVKGRFTISRDDSKNSLYLQMNSLKTEDTAVYYCARDLPGFAYWGQGTLVTVSS
VL: DIVMTQSPDSLAVSLGERATINCKSSQSLFNSHTRKNYLAWYQQKPGQPPKLLIYWASARGSGVPDRFSGSGSGTDFTLTISSLQAEDVAVYYCKQSFNLRTFGGGTKVEIK
notes: Tested as Fab
B2: in experiment [3], the Kd stood at 0.36 nM, the koff was 0.000286 s⁻¹, the kon was 803000 M⁻¹ s⁻¹ and the “t½” value came out at 40.4 min. The same molecule returned an MFI in experiment [4] of 4630.

B3: h3G10.2.37 VH / h3G10.A58A VL Fab (Fab, V domains shown)
VH: EVQLVESGGGLVQPGGSLRLSCAASGFTFSDYYMSWVRQAPGKGLEWVGFIRHKANFYTREYSTSVKGRFTISRDDSKNSLYLQMNSLKTEDTAVYYCARDLPGFAYWGQGTLVTVSS
VL: DIVMTQSPDSLAVSLGERATINCKSSQSLFNSHTRKNYLAWYQQKPGQPPKLLIYWASARGSGVPDRFSGSGSGTDFTLTISSLQAEDVAVYYCKQSFRLRTFGGGTKVEIK
notes: Tested as Fab
Take B3: in experiment [3], the Kd came out at 0.32 nM, the koff is 0.000418 s⁻¹, the kon was 1.29e+06 M⁻¹ s⁻¹ and the “t½” value stood at 27.6 min. For the same molecule, the MFI in experiment [4] was 4070.

B4: h3G10.1.91 VH / h3G10.A58A VL Fab (Fab, V domains shown)
VH: EVQLVESGGGLVQPGGSLRLSCAASGFTFSDYYMSWVRQAPGKGLEWVGFIRHKANFETTEYSTSVKGRFTISRDDSKNSLYLQMNSLKTEDTAVYYCARDLPGFAYWGQGTLVTVSS
VL: DIVMTQSPDSLAVSLGERATINCKSSQSLFNSHTRKNYLAWYQQKPGQPPKLLIYWASARGSGVPDRFSGSGSGTDFTLTISSLQAEDVAVYYCKQSFRLRTFGGGTKVEIK
notes: Tested as Fab
Consider B4, for which, in experiment [3], the Kd came to 0.38 nM, the koff came to 0.000341 s⁻¹, the on-rate constant (kon) came out at 908000 M⁻¹ s⁻¹ and the “t½” value was found to be 33.9 min. The MFI in experiment [4] stood at 5050.

B5: h3G10.2.42 VH / h3G10.2.72 VL Fab (Fab, V domains shown)
VH: EVQLVESGGGLVQPGGSLRLSCAASGFTFSDYYMSWVRQAPGKGLEWVGFIRHKVNFYTTEYSTSVKGRFTISRDDSKNSLYLQMNSLKTEDTAVYYCARDLPGFAYWGQGTLVTVSS
VL: DIVMTQSPDSLAVSLGERATINCKSSQSLFNSRTRKNYLAWYQQKPGQPPKLLIYWASARESGVPDRFSGSGSGTDFTLTISSLQAEDVAVYYCKQSFRLRTFGGGTKVEIK
notes: Tested as Fab
As for B5, the values for the MFI in experiment [1] and in experiment [2] were 4720 and 1760, respectively.

B6: h3G10.3.25 VH / h3G10.2.72 VL Fab (Fab, V domains shown)
VH: EVQLVESGGGLVQPGGSLRLSCAASGFTFSDYYMSWVRQAPGKGLEWVGFIRHKANFYTTEYSTSDKGRFTISRDDSKNSLYLQMNSLKTEDTAVYYCARDLPGFAYWGQGTLVTVSS
VL: DIVMTQSPDSLAVSLGERATINCKSSQSLFNSRTRKNYLAWYQQKPGQPPKLLIYWASARESGVPDRFSGSGSGTDFTLTISSLQAEDVAVYYCKQSFRLRTFGGGTKVEIK
notes: Tested as Fab
Take B6: the MFI amounted to 2680 in experiment [1] and 454 in experiment [2].

B7: h3G10.2.45 VH / h3G10.2.72 VL Fab (Fab, V domains shown)
VH: EVQLVESGGGLVQPGGSLRLSCAASGFTFSDYYMSWVRQAPGKGLEWVGFIRHKANFYTTEYSTWVKGRFTISRDDSKNSLYLQMNSLKTEDTAVYYCARDLPGFAYWGQGTLVTVSS
VL: DIVMTQSPDSLAVSLGERATINCKSSQSLFNSRTRKNYLAWYQQKPGQPPKLLIYWASARESGVPDRFSGSGSGTDFTLTISSLQAEDVAVYYCKQSFRLRTFGGGTKVEIK
notes: Tested as Fab
B7: the MFI was 2780 in experiment [1] and 929 in experiment [2].

B8: h3G10.A57 VH / h3G10.2.25 VL Fab (Fab, V domains shown)
VH: EVQLVESGGGLVQPGGSLRLSCAASGFTFSDYYMSWVRQAPGKGLEWVGFIRHKANFYTTEYSTSVKGRFTISRDDSKNSLYLQMNSLKTEDTAVYYCARDLPGFAYWGQGTLVTVSS
VL: DIVMTQSPDSLAVSLGERATINCRSSQSLFNSRTRKNYLAWYQQKPGQPPKLLIYWASARESGVPDRFSGSGSGTDFTLTISSLQAEDVAVYYCKQSFRLRTFGGGTKVEIK
notes: Tested as Fab
For B8, the MFI in experiment [1] came to 5000; in experiment [2], 1380.

B9: h3G10.1.33 VH / h3G10.2.72 VL Fab (Fab, V domains shown)
VH: EVQLVESGGGLVQPGGSLRLSCAASGFTFSDYYMSWVRQAPGKGLEWVGFIRHKANFYTTEYSTSVTGRFTISRDDSKNSLYLQMNSLKTEDTAVYYCARDLPGFAYWGQGTLVTVSS
VL: DIVMTQSPDSLAVSLGERATINCKSSQSLFNSRTRKNYLAWYQQKPGQPPKLLIYWASARESGVPDRFSGSGSGTDFTLTISSLQAEDVAVYYCKQSFRLRTFGGGTKVEIK
notes: Tested as Fab
Regarding B9, the results for the MFI in experiment [1] and in experiment [2] were 4140 and 848, respectively.

B10: h3G10.2.5 VH / h3G10.2.72 VL Fab (Fab, V domains shown)
VH: EVQLVESGGGLVQPGGSLRLSCAASGFTFSDYYMSWVRQAPGKGLEWVGFIRHKANIYTTEYSTSVKGRFTISRDDSKNSLYLQMNSLKTEDTAVYYCARDLPGFAYWGQGTLVTVSS
VL: DIVMTQSPDSLAVSLGERATINCKSSQSLFNSRTRKNYLAWYQQKPGQPPKLLIYWASARESGVPDRFSGSGSGTDFTLTISSLQAEDVAVYYCKQSFRLRTFGGGTKVEIK
notes: Tested as Fab
As to B10, the MFI in experiment [1] is 2790; in experiment [2] it was 390.

B11: h3G10.B44 VH / h3G10.A58A VL Fab (Fab, V domains shown)
VH: EVQLVESGGGLVQPGGSLRLSCAASGFTFSDYYMSWVRQAPGKGLEWVSFIRHKANFYTTEYSTSVKGRFTISRDNSKNTLYLQMNSLRAEDTAVYYCAKDLPGFAYWGQGTLVTVSS
VL: DIVMTQSPDSLAVSLGERATINCKSSQSLFNSHTRKNYLAWYQQKPGQPPKLLIYWASARGSGVPDRFSGSGSGTDFTLTISSLQAEDVAVYYCKQSFRLRTFGGGTKVEIK
notes: Tested as Fab
In the case of B11, the MFI in experiment [1] was 9410; in experiment [2] it was 5120.

B12: h3G10.1.60 VH / h3G10.2.72 VL Fab (Fab, V domains shown)
VH: EVQLVESGGGLVQPGGSLRLSCAASGFTFSDYYMSWVRQAPGKGLEWVGFIRHKANVYTTEYSTSVKGRFTISRDDSKNSLYLQMNSLKTEDTAVYYCARDLPGFAYWGQGTLVTVSS
VL: DIVMTQSPDSLAVSLGERATINCKSSQSLFNSRTRKNYLAWYQQKPGQPPKLLIYWASARESGVPDRFSGSGSGTDFTLTISSLQAEDVAVYYCKQSFRLRTFGGGTKVEIK
notes: Tested as Fab
Consider B12, for which the MFI amounted to 2810 in experiment [1] and 396 in experiment [2].

B13: h3G10.2.54 VH / h3G10.2.72 VL Fab (Fab, V domains shown)
VH: EVQLVESGGGLVQPGGSLRLSCAASGFTFSDYYMSWVRQAPGKGLEWVGFIRHKANFYTTEYSTSVRGRFTISRDDSKNSLYLQMNSLKTEDTAVYYCARDLPGFAYWGQGTLVTVSS
VL: DIVMTQSPDSLAVSLGERATINCKSSQSLFNSRTRKNYLAWYQQKPGQPPKLLIYWASARESGVPDRFSGSGSGTDFTLTISSLQAEDVAVYYCKQSFRLRTFGGGTKVEIK
notes: Tested as Fab
B13: the MFI worked out at 4610 in experiment [1] and 1740 in experiment [2].
